Data: article doi:10.1101/519959

Biological target: T1, DBINO domain of dIno80 (Drosophila melanogaster, UniProt Q9VDY1 228-484)
T1 sequence: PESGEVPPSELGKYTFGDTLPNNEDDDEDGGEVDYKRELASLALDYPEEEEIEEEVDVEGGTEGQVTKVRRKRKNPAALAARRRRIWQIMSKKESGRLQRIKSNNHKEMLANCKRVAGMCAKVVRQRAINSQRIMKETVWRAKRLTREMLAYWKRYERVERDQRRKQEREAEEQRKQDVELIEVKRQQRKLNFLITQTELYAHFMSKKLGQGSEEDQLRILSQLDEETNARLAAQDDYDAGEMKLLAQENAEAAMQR
Experiment: fluorescent intercalator displacement

B1: Hs.con (3 copies of Ino80 motif, 33-mer) (dsDNA)
DNA 1: CCCCGTCAGCCCCCCGTCAGCCCCCCGTCAGCC
DNA 2: GGCTGACGGGGGGCTGACGGGGGGCTGACGGGG
B1 was tested, and the Kd was 10 µM.
